Biological target: T1, Msi3, the sole Hsp110 of Candida albicans (Candida albicans, UniProt Q96VB9 1-701)
T1 construct: Msi3 (Hsp110) of Candida albicans; ORF amplified from genomic DNA and cloned into the pSMT3 vector; source: E. coli Rosetta2(DE3)pLysS, purified (HisTrap, Ulp1 cleavage, second HisTrap, HiTrap Q); not shown: His6, N-terminal, cleaved; Smt3, N-terminal, cleaved
T1 sequence (looked up): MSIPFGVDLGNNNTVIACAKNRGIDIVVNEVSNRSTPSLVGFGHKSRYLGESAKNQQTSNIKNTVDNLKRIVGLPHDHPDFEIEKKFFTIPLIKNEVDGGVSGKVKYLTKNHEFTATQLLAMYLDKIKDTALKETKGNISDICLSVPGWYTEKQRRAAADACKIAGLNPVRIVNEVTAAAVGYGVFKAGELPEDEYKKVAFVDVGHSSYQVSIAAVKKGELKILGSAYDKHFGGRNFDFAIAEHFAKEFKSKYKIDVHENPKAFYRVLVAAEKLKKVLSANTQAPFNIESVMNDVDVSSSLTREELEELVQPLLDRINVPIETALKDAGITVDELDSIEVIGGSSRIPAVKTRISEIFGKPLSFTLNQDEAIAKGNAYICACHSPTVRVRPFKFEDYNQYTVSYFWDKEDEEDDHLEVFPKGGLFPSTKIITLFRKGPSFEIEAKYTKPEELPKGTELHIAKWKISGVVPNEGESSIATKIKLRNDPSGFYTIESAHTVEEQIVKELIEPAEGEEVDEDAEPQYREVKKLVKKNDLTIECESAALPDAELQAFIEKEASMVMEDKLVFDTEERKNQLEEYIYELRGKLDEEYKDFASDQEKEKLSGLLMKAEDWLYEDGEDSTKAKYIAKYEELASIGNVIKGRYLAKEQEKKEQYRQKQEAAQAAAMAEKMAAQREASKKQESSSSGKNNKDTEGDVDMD
Assay: native gel or EMSA; Msi3 (5 uM) and Ssa1 (10 uM) mixed with 2 mM ATP in buffer D (25 mM Hepes-KOH pH 7.5, 50 mM KCl, 10 mM Mg(OAc)2, 1 mM DTT), 45 min on ice; 10% native gel, Coomassie; with or without 100 uM 2H
Details: both partners purified

B1: Ssa1, the major cytosolic Hsp70 of S. cerevisiae (natural protein)
chain: not shown
notes: Ssa1, Hsp70 from Saccharomyces cerevisiae; source: Pichia pastoris GS115, purified (HiTrap Q, butyl-Sepharose, ATP agarose)
  binding result: binds

— paper PMC10182041, “A first-in-class inhibitor of Hsp110 molecular chaperones of pathogenic fungi” (Nature Communications, 2023)
